According to PMC6509359:
“And” between values parts separate entries of the source, which are not always exact repeats. Equal values may be shown once. Values belong to the binder of their own block, whether it stands above or below them.

Assays:
Conditions in all cases: remark: other sources report otherwise
[1] = biological target: T1, Human USP25 (1-1055) (human), Q9UHP3; assay: SEC-MALS; five-fold dilution series (1 mg/mL, 0.2 mg/mL, 0.04 mg/mL sample concentration)
T1 chain: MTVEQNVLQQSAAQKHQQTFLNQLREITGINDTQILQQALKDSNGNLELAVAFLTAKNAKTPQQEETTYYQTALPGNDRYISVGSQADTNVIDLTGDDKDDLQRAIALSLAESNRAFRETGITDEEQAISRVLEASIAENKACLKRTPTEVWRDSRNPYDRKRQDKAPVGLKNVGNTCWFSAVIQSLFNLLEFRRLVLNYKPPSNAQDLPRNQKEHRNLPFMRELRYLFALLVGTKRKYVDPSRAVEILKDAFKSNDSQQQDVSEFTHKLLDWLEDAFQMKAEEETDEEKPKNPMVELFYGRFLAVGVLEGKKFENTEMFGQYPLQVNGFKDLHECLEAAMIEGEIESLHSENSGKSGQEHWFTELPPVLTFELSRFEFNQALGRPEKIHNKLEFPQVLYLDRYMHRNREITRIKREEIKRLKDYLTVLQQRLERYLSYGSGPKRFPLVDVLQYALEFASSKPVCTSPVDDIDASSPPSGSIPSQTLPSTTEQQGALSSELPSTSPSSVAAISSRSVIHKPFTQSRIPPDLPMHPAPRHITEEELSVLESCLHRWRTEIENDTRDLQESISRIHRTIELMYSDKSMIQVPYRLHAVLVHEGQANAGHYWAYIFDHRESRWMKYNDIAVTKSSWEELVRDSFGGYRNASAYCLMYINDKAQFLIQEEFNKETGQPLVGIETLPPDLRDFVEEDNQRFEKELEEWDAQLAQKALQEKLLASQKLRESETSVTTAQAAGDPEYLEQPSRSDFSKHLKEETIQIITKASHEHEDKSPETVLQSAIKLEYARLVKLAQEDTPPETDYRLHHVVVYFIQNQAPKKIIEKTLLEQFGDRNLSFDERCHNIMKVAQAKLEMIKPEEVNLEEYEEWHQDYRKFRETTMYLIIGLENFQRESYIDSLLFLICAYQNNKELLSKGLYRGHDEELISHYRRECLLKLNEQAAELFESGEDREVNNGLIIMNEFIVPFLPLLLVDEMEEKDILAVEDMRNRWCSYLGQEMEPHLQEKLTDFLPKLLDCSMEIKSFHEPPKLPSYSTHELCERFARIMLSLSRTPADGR

[2] = biological target: T1, Human USP25 (1-1055) (human), Q9UHP3; assay: SEC + native gel or EMSA; recombinant full-length USP25 on HiLoad 16/600 Superdex 200 pg in buffer E immediately before native PAGE, Ponceau staining
[3] = biological target: T1, Human USP25 (1-1055) (human), Q9UHP3; assay: not stated; oligomeric states of purified orthologs and of full-length proteins, Figures S7A, S7B and S3J
[4] = biological target: T2, endogenous USP25 (human (endogenous in HEK293)), Q9UHP3; assay: native gel or EMSA; native PAGE of lysate of untreated HEK293 cells, immunoblotting for the endogenous protein; recombinant USP25 tetramer and dimer fractions as size standard
T2 chain: T1 chain

stoichiometry N [1]: 4 and 2
stoichiometry N [2]: 4 and 2
stoichiometry N [3]: 2 and 4
B1: Human USP25 (1-1055), Q9UHP3 1-1055 (enzyme)
chain: T1 chain

stoichiometry N [4]: 2 and 4
B2: endogenous USP25, Q9UHP3 1-1055 (enzyme)
chain: T1 chain
